Data set [1] addresses ATF5-d1 labeled at the C-terminus. The experiment in a line: FRET or BRET; direct-binding FRET of the designed peptide with itself (row 'homodimer'; dimer to monomers); acceptor-labelled design titrated into donor-labelled design by note 1 of the tables; 4 °C.
A further data set deals with BACH2 (Homo sapiens, UniProt Q9BYV9). The experiment in a line: FRET or BRET; direct-binding FRET in 384-well plates; rhodamine-labelled design (acceptor) titrated 0 to 1 uM into 10 nM fluorescein-labelled bZIP (donor); 150 mM KCl, 50 mM potassium phosphate pH 7.4, 0.1% Tween-20, 0.1% BSA; 4 °C. (In BRET a luciferase serves as donor, and the signal depends on an acceptor being close.)

For another data set, the target named is JUN (Homo sapiens, UniProt P05412). The experiment in a line: FRET or BRET; direct-binding FRET in 384-well plates; rhodamine-labelled design (acceptor) titrated 0 to 1 uM into 10 nM fluorescein-labelled bZIP (donor); 150 mM KCl, 50 mM potassium phosphate pH 7.4, 0.1% Tween-20, 0.1% BSA; 23 °C.
The target of the next data set is NFE2L1 (Homo sapiens, UniProt Q14494). Described as above.
A further data set deals with CREBZF (human) (UniProt Q9NS37). The data set is described as above.
In another data set the target is CREB3L1 (human) (UniProt Q96BA8). In words: FRET or BRET; direct-binding FRET in 384-well plates; rhodamine-labelled design (acceptor) titrated 0 to 1 uM into 10 nM fluorescein-labelled bZIP (donor); 150 mM KCl, 50 mM potassium phosphate pH 7.4, 0.1% Tween-20, 0.1% BSA; 37 °C.
Another data set deals with CREB1 (human) (UniProt P16220). The description is as above.
Data set [2] concerns the molecule itself. The experiment in a line: FRET or BRET; direct-binding FRET of the designed peptide with itself (row 'homodimer'; dimer to monomers); acceptor-labelled design titrated into donor-labelled design by note 1 of the tables; 4 °C.
The next data set concerns the target MAFG (Homo sapiens, UniProt O15525). In words: FRET or BRET; direct-binding FRET in 384-well plates; rhodamine-labelled design (acceptor) titrated 0 to 1 uM into 10 nM fluorescein-labelled bZIP (donor); 150 mM KCl, 50 mM potassium phosphate pH 7.4, 0.1% Tween-20, 0.1% BSA; 23 °C.
For another data set, the target named is FOS (Homo sapiens, UniProt P01100). The description is as above.
A further data set has as its target NFIL3 (human) (UniProt Q16649). Described as above.
For the next data set, the target named is NFE2L3 (human) (UniProt Q9Y4A8). Described as above.
The next data set deals with MAFB (Homo sapiens, UniProt Q9Y5Q3). Described as above.
A further data set concerns the target ATF6B (Homo sapiens, UniProt Q99941). Described as above.
The target in a further data set is MAF (Homo sapiens, UniProt O75444). The description is as above.

Data on two molecules can be found in publication PMC4335062, “Data-Driven Prediction and Design of bZIP Coiled-Coil Interactions” (PLoS Computational Biology, 2015).

Where no end group is shown, it is not given here.

NFE2L1, sequence (Q14494 whole entry): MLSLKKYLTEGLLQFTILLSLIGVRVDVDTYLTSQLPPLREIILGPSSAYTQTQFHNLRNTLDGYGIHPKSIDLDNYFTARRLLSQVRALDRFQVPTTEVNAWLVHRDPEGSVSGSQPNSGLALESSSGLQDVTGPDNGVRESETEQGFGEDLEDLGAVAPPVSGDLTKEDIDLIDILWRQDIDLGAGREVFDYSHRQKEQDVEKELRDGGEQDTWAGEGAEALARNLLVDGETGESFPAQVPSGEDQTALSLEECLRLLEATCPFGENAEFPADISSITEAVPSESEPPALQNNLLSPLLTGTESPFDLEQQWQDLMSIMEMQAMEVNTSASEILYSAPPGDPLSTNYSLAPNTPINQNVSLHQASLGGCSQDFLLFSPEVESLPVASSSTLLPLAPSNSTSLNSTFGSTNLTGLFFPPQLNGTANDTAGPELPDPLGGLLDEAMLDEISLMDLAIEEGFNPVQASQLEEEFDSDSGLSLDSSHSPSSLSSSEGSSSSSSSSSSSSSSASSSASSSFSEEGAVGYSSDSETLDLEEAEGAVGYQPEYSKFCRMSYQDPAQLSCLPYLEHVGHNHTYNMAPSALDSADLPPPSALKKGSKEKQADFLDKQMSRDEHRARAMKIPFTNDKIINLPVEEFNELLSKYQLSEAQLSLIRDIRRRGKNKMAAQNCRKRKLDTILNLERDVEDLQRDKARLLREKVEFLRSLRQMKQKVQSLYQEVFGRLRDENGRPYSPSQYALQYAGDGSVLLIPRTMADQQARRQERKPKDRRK
ATF6B, sequence (Q99941 whole entry): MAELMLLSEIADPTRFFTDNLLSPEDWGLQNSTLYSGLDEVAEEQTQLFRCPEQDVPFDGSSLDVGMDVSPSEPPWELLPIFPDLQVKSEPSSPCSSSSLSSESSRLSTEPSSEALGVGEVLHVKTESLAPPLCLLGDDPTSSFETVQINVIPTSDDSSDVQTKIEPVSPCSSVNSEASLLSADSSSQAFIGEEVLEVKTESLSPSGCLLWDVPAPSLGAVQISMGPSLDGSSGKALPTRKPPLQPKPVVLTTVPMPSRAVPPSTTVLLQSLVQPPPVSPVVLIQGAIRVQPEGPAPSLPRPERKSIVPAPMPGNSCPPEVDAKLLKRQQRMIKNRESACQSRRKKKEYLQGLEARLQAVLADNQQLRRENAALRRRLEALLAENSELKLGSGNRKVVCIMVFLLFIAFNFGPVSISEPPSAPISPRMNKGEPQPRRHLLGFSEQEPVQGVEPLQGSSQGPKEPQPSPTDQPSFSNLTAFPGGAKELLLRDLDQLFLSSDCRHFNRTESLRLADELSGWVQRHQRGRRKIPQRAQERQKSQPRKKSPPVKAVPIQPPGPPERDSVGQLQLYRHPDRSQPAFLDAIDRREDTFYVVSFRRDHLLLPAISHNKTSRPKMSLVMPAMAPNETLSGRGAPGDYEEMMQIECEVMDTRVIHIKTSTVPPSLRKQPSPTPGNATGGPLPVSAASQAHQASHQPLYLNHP
NFIL3 (human), sequence (Q16649 whole entry): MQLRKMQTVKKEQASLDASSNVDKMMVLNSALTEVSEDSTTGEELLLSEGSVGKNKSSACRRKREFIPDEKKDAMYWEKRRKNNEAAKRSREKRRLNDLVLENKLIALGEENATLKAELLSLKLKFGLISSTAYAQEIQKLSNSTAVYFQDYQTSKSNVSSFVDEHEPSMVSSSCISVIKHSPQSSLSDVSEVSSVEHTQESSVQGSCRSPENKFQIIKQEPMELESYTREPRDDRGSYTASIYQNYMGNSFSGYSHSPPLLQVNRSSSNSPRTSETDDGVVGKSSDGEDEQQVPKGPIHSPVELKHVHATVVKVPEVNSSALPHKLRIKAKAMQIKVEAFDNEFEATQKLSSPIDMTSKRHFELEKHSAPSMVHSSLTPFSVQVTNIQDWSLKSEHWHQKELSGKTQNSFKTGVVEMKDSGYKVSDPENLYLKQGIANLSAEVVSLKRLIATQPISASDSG
BACH2, sequence (Q9BYV9 whole entry): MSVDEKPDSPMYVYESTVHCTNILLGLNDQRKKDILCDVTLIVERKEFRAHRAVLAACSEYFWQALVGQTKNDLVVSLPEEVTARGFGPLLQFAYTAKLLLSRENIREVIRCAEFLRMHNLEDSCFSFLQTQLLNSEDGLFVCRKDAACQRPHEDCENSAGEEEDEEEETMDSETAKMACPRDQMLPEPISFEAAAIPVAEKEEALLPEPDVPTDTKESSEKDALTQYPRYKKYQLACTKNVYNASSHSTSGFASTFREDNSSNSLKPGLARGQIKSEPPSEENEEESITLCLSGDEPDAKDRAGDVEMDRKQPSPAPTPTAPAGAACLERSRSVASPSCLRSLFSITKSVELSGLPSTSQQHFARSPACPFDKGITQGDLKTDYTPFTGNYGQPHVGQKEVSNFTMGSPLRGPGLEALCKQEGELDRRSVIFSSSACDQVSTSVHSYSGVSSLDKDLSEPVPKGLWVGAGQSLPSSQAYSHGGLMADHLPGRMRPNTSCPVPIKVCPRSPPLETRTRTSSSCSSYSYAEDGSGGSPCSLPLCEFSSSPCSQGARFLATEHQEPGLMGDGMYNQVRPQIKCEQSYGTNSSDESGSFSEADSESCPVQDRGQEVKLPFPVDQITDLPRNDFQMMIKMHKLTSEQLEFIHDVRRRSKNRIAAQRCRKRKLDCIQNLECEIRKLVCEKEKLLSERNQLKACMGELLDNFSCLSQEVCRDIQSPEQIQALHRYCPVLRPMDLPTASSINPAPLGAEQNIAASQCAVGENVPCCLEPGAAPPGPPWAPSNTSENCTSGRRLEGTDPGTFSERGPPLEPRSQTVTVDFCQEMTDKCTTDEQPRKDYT
MAFG, sequence (O15525 whole entry): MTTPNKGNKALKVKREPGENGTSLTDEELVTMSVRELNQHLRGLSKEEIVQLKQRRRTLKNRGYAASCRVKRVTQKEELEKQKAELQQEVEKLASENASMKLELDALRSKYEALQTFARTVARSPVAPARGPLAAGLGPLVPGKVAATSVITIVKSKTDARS
CREBZF (human), sequence (Q9NS37 whole entry): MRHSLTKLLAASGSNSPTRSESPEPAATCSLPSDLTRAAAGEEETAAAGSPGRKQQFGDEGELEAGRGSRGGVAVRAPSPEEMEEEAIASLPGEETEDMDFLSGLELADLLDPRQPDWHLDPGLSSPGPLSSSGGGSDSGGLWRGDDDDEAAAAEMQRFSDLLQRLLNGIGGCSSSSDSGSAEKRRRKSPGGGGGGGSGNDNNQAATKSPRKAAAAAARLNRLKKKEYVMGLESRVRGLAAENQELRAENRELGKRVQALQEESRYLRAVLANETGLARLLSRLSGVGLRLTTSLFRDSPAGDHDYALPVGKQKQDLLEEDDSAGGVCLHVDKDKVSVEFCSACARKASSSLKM
NFE2L3 (human), sequence (Q9Y4A8 whole entry): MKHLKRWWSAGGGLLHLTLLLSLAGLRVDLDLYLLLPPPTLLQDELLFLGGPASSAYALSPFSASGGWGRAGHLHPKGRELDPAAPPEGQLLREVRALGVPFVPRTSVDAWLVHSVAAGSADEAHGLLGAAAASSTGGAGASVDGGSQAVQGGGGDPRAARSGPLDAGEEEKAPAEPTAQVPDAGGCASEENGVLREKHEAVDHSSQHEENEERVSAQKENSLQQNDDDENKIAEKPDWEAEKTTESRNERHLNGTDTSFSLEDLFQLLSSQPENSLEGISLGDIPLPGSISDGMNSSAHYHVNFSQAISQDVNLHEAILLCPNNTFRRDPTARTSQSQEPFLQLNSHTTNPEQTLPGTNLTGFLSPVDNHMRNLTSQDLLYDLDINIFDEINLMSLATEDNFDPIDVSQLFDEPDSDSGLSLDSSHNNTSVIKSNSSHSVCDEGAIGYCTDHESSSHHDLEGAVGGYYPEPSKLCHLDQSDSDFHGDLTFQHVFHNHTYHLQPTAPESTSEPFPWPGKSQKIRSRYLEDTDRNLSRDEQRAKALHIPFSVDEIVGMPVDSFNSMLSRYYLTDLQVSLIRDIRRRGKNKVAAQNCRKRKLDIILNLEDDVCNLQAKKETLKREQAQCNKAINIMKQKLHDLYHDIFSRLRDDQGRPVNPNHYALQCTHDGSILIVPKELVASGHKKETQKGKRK
CREB1 (human), sequence (P16220 whole entry): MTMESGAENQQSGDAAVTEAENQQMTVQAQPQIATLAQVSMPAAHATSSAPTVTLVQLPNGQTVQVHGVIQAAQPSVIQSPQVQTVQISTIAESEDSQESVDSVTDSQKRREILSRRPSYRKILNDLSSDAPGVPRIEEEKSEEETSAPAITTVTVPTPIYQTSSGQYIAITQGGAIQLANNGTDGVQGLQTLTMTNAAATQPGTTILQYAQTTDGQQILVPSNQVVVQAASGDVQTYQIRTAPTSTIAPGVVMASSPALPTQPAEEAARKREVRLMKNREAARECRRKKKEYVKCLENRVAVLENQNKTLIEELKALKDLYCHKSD
JUN, sequence (P05412 whole entry): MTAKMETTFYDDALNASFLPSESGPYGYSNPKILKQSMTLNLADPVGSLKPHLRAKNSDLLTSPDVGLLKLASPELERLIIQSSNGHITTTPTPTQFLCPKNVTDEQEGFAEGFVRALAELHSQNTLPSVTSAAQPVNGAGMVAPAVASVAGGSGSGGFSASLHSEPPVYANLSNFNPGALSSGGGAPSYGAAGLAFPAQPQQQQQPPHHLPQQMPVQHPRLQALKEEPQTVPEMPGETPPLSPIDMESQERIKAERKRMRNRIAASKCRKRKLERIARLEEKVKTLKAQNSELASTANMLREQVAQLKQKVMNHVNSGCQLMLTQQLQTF
MAFB, sequence (Q9Y5Q3 whole entry): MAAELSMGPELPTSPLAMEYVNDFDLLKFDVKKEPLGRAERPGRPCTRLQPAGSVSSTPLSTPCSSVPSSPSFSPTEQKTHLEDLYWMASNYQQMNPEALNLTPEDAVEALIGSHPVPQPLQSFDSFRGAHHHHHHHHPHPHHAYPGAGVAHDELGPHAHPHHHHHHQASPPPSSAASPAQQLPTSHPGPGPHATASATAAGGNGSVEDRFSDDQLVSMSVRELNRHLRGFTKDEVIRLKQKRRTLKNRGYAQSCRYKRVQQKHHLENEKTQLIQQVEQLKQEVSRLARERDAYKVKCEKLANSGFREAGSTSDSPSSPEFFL

B1: ATF5-d1 labeled at the C-terminus (designed binder)
chain: GESKEYKKGSGSKRIAYLRQRIAELRNENHVLESRIQRMEKEKDALQQDRDHLEYELGC(Rhodamine Red C2‑maleimide)
modifications: not fully specified
The Kd is a measure of binding affinity in units of concentration. A high value points to lower affinity. As to B1, the Kd in [1] was 1 µM; with BACH2, > 5 µM; with JUN it was > 5 µM; with NFE2L1 it was > 5 µM; in the data set with CREBZF (human) it was > 5 µM; in the data set with CREB3L1 (human), 1 µM. This molecule also returned a Kd with CREB1 (human) of 1 µM.

B2: ATF4-d1 labeled at the C-terminus (designed binder)
chain: GESKEYKKGSGSNQIKTLRTRLSKLRKDNLQLEKDIANLERKAKDLRAEKEQLEYELGC
modifications: also: C59 label by assay: Rhodamine Red C2-maleimide or fluorescein-5-maleimide
notes: solubility linker after the His6 tag; added to the C-terminus for labeling; one molecule for the rhodamine- and the fluorescein-labelled form; the assay tells which label stood there; also called ATF4-d1-Rhodamine; ATF4-d1-FITC; source: E. coli RP3098, purified (Ni-NTA under denaturing conditions, reverse-phase HPLC)
On to B2, for which the Kd in [2] was 0.001 µM; in the data set with MAFG it was 1 µM; with FOS, 1 µM; in the data set with NFIL3 (human), > 5 µM; with NFE2L3 (human) it was 1 µM; with MAFB, > 5 µM. Further, the Kd in the data set with ATF6B was 1 µM; in the data set with MAF, > 5 µM.
